Measurements: US20160304622A1 (GENEFRONTIER, published 2016)

Legend:
Test in all cases: immunoblotting after reducing SDS-PAGE
[1] = target: T1, recombinant human ADAM12 (Mochida Pharmaceutical Co., Ltd.) (human, UniProt O43184 208-708, limits assumed)
T1 sequence (looked up): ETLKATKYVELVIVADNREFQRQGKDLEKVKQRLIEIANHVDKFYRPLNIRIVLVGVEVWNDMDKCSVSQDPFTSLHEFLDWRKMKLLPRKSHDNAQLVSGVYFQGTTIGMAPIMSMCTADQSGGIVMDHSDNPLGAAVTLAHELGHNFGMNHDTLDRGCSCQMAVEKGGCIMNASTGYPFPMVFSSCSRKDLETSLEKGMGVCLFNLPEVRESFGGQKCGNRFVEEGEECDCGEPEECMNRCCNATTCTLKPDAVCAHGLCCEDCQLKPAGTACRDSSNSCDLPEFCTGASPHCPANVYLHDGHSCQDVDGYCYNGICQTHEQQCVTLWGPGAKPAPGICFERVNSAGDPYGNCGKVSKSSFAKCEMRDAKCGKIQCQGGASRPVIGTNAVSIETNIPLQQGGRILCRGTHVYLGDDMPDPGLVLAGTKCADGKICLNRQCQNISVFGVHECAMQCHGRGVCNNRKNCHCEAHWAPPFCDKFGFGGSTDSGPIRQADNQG
Source text: (§1) Recombinant proteins of human ADAMTS1 (R&D Systems), ADAMTS4, ADAMTS5 (R&D Systems), ADAMTS15 (R&D Systems), ADAM10 (R&D Systems), ADAM12 (Mochida Pharmaceutical Co., Ltd., Tokyo, Japan), ADAM17 (R&D Systems) and MMP-13 (Millipore, Billerica, Mass.) and purified human MMP-1, MMP-2, MMP-3 and MMP-9 (Daiichi Fine Chemical, Co., Ltd., Toyama, Japan) were subjected to sodium dodecyl sulfate-polyacrylamide gel electrophoresis (SDS-PAGE) under reducing conditions, and the samples resolved on the gels were transferred onto polyvinylidene difluoride (PVDF) membranes. […] After washing with phosphate buffered saline containing 0.1% Tween 20, the membranes were reacted with horseradish peroxidase-conjugated secondary antibody against human IgG (Invitrogen, Carlsbad, Calif.) for 1 h at room temperature. A chemiluminescence reagent (Pierce ECL western blotting substrate; Thermo Fisher Scientific, Waltham, Mass.) was used to make the labeled protein bands visible. All the samples were also examined on silver-stained gels, which were prepared by silver stain kit (Cosmo Bio Co., Ltd, […].).

[2] = target: T2, recombinant human ADAMTS1 (R&D Systems) (human, UniProt Q9UHI8 253-967, limits assumed)
T2 sequence (looked up): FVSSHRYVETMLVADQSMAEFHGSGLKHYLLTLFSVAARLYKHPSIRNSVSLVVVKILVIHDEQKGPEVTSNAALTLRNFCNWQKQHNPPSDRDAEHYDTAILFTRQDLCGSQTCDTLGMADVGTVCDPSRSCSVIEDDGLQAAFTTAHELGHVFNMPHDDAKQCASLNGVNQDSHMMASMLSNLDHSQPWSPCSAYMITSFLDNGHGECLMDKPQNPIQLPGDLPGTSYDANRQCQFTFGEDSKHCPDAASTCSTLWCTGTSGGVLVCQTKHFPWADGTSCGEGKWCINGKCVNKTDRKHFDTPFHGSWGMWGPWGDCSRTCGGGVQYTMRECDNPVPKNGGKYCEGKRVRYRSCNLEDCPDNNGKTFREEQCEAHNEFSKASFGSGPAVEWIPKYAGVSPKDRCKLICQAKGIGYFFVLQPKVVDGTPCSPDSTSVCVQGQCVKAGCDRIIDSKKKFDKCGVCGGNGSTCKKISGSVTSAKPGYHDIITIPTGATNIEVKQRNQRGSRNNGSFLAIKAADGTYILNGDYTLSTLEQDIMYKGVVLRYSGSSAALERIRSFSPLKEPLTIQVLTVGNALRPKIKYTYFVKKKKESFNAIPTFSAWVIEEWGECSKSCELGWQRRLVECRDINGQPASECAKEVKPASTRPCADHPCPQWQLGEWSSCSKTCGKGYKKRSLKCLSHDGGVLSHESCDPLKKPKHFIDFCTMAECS
Source text: as §1

[3] = target: T3, purified human MMP-2 (Daiichi Fine Chemical) (human, UniProt P08253 30-660, limits assumed)
T3 sequence (looked up): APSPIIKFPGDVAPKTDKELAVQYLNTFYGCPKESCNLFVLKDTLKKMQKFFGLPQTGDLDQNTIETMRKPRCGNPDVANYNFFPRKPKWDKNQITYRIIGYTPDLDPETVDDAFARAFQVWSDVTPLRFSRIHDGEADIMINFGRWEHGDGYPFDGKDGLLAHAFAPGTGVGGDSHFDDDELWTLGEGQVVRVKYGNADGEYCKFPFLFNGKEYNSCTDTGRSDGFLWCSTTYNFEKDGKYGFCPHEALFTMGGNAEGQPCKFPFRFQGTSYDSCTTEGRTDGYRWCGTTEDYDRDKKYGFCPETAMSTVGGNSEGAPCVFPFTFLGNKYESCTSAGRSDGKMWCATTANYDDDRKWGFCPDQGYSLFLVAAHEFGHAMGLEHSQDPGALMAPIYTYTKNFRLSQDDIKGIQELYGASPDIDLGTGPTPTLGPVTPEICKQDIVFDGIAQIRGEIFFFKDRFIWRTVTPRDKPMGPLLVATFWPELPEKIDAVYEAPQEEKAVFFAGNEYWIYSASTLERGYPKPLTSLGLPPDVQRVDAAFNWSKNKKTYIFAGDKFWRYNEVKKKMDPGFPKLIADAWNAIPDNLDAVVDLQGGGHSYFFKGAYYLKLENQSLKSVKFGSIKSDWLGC
Source text: as §1

Measured: binding result

B1: Fab of clone 237-53 (Fab, V domains shown)
VH: QVQLVQSGAEVKKPGSSVKVSCKASGGTFSSFAISWVRQAPGQGLEWMGGIFPIFGQANYAQKFQGRVTITADESTSTAYMELSSLRSEDTAVYYCARFSDWWEWQMDYWGQGTLVTVSS
VL: DIVMTQSPDSLAVSLGERATINCRSSQSILYSSNNNYLAWYQQKPGQPPKLLIHTASARESGVPDRFSGSGSGTDFTLTISSLQAEDVAVYYCQQYYSVSITFGQGTKVEIKR
no binding (tested: 5 µg/ml): all assays above
